Reference: US12637662B2, “Cells, islets, and organoids that evade immune detection and autoimmunity, methods of production and use thereof” (SALK INSTITUTE FOR BIOLOGICAL STUDIES, priority 2018, dated 2026)

Legend:
[1] = test system: insulin-expressing cells of HILOs; assay: Mitochondrial content (MitoTracker) and insulin-GFP by flow cytometry; type: cell-based, human
Source text: FIGS. 8A-8H provide images, graphs, a schematic and a diagram showing results related to WNT4 mediated insulin-GFP expression and WNT4-driven metabolic maturation. FIG. 8A presents representative images of mitochondrial content, indicated by MitoTracker (red) staining, in PBS and WNT4 treated HILOs (scale bar, 100 μm). FIG. 8B presents graphs of flow cytometry quantification of insulin expression (GFP) and mitochondrial content in HILOs treated with recombinant human WNT4 (rhWNT4), WNT5A (rhWNT5A), or conditioned medium (CM) from control or WNT5A overexpressing fibroblasts (n=3). Error bars represent SEM. *p<0.05. FIG. 8C presents a gene ontology of transcriptional changes induced by WNT4 treatment (100 ng/ml WNT4 from day26 to day33) in HILOs. […] Error bars represent SEM. *p<0.05. FIG. 8E presents a Venn diagram showing overlap between WNT4-induced increases in chromatin accessibility in GFP^+ cells and increases in HILO gene expression (upper panel), and gene ontology pathways enriched in the intersection gene set. […] For FIGS. 8G and 8H, postnatal islets (day P11-14) from WT and β cell specific ERRγKO mice were cultured with or without rhWNT4 (100 ng/ml) for >5 days.

[2] = test system: ERRγ (ESRRG), mitochondrial and insulin gene expression; assay: Quantitative RT-PCR gene expression in hiPSC-derived islet organoids/HILOs; type: cell-based, human; settings: hiPSC-derived islet organoids, MCS or HILOs
Description: hiPSCs were cultured in matrigel-coated plates. Single cell suspensions were prepared using Accutase, washed in PBS, and collected by centrifugation (1000-1300 rpm for 5 min). Cells were re-suspended with 3D Kelco Gel Stem TeSR™ Base Medium in the presence of the ROCK inhibitor (10 μM Y-27632, StemCell) for 5 to 7 days until spheroids reached 50-100 μm diameter. The medium was then replaced with 0.015% Kelco gel containing 0.3% methylcellulose and supplemented with 100 ng/ml human Activin A (R&D Systems), 3 μM CHIR99021 (Axon or Selleckchem) in differentiation medium (S1) for 1 day, and then 100 ng/ml human Activin in differentiation medium (S1) for another 2 days (Stage 1, Definitive Endoderm). Subsequently, the medium was replaced with differentiation medium (S2) with 50 ng/ml FGF7 (R&D Systems) for 2 days, differentiation medium (S3) with 50 ng/ml FGF7, 0.25 μM SANT-1 (Sigma), 1 μM Retinoic Acid (Sigma), 100 nM LDN193189, 10 μM Alk5 inhibitor II and 200 nM of the ß-Amyloid Precursor Protein modulator TPB for 3 days, then 50 ng/ml FGF7, 0.25 μM SANT-1 (Sigma), 1 μM Retinoic Acid (Sigma), 100 nM LDN193189, 10 μM Alk5 inhibitor II and 100 nM of the ß-Amyloid Precursor Protein modulator TPB for 2 days. Subsequently the medium was replaced with differentiation medium (S4) with 0.25 μM SANT-1, 50 nM retinoic acid, 100 nM LDN193189, 10 μM Alk5 inhibitor II, 1 μM T3 for 3 days. Subsequently, the medium was replaced with differentiation medium (S5) with 100 nM LDN193189, 100 nM […] inhibitor XX (GSiXX, Millipore), 10 μM Alk5 inhibitor IL, 1 μM T3 for 7 days. Subsequently, the medium was replaced with differentiation media (S5) with 10 μM Trolox (Calbiochem), 2 μM R428 (Selleckchem), 1 mM N-acetyl cysteine, 10 μM Alk5 inhibitor II, 1 μM T3 for an additional 7 to 20 days. […]
Total RNA was extracted using TRIzol reagent (Invitrogen) and RNeasy KIT (Qiagen). […] Real time quantitative RT-PCR (qPCR) was performed using SYBR Green (Bio-Rad).

B1: WNT5a: recombinant human Wnt5a protein (protein, UniProt P41221 62-380, looked up)
Protein Wnt-5a: IIGAQPLCSQLAGLSQGQKKLCHLYQDHMQYIGEGAKTGIKECQYQFRHRRWNCSTVDNTSVFGRVMQIGSRETAFTYAVSAAGVVNAMSRACREGELSTCGCSRAARPKDLPRDWLWGGCGDNIDYGYRFAKEFVDARERERIHAKGSYESARILMNLHNNEAGRRTVYNLADVACKCHGVSGSCSLKTCWLQLADFRKVGDALKEKYDSAAAMRLNSRGKLVQVNSRFNSPTTQDLVYIDPSPDYCVRNESTGSLGTQGRLCNKTSEGMDGCELMCCGRGYDQFKTVQTERCHCKFHWCCYVKCKKCTEIVDQFVCK
proportion of insulin expressing cells ([1]; GFP sorting, HILOs with and without WNT treatment): not affected
mitochondrial content / number ([1]; MitoTracker, HILOs / insulin-expressing cells): increased the mitochondrial content
expression of ERRγ (ESRRG) and mitochondrial genes [2]: induced
